According to US20230250168A1 (MABWELL SHANGHAI BIOSCIENCE, published 2023):
Each block holds one binder with its values, some of them ahead of it.

Key:
[1] = target: T1, human CLDN18.2 expressed on cell surfaces (human, UniProt P56856-2 1-261); assay: flow cytometry on CHOK1 cells expressing human CLDN18.2, goat anti-human IgG secondary, normalised MFI
T1 construct: whole, on cells; also called CHOK1 cells stably expressing human CLDN18.2
Experimental: The chimeric anti-human CLDN18.2 antibodies were diluted 2-fold in gradient from an initial concentration of 100 nM and solutions of each antibody of 16 concentrations were obtained. 10 μl of the solutions of each antibody of each concentration was added to a 384-well plate. CHOK1 cells expressing CLDN18.2 on the cell surface were collected by centrifugation for 5 min at 100 g at room temperature, and the cells were washed with PBS containing 0.5% BSA once and then were centrifuged for 5 min at 100 g at room temperature. The cells were resuspended at a density of about 2×10⁶ cells/ml, and 10 μl was added to each well of the 384-well plate to which the antibody had been added. After incubation for 1 hour at 4° C., fluorescently labeled secondary goat anti-human IgG antibody was added. After continued incubation for 1 hour at 4° C., the mean fluorescence readings of the cell populations were analyzed by a flow cytometer.

[2] = target: T1, human CLDN18.2 expressed on cell …; assay: FACS of hybridoma supernatants on CHOK1 cells
Experimental: Balb/c mice were immunized with CHOK1 cells stably expressing human CLDN18.2 protein on cell surfaces. One month later, sera from the mice were analyzed by flow cytometry (FACS), and spleens were taken from mice having high antibody titers in sera. The spleen cells isolated by standard methods were fused with myeloma cells P3X63Ag8.653 using PEG or electrofusion methods. The fused hybridoma cells were seeded in 384 well plates, and after 10-14 days of culture, supernatants obtained were analyzed by FACS for antibody secretion by the hybridoma cells. Several clones were obtained that were able to bind to CHOK1 cells stably expressing human CLDN18.2 protein on cell surfaces and were not able to bind to CHOK1 cells stably expressing human CLDN18.1 protein on cell surfaces. Single cells of the obtained clones were obtained by Limiting Dilution, and each of the monoclonal hybridoma cell clones obtained after being diluted three times secreted only one antibody.

[3] = target: T2, antigen human CLDN18.2, His-tagged (human, UniProt P56856-2 1-261, limits assumed); assay: BLI (Fortebio), His-tagged antigen on NTA probe, 100 nM antibody, 1:1 fit
T2 construct: Recombinant antigen used in the Fortebio assay (His-tagged, captured on NTA probe); also called His-tagged antigen; not shown: His tag
Experimental: The binding kinetic parameters of the chimeric antibodies and the humanized antibodies thereof to the antigen human CLDN18.2 were analyzed by a Fortebio (BLITZ pro1.1.0.28) instrument. Before performing the assay, an NTA bioprobe was soaked in PBS for 10 min, and the probe was then placed in PBS containing 100 nM antigen for 300 s to capture the His-tagged antigen. The probe was further subjected to a binding reaction with 100 nM antibody for a binding time of 400 s, and the probe was then transferred to PBS and subjected to a dissociation reaction for 600 s. When the assay was finished, data from which the response value of a blank control had been deducted were fitted to a 1:1 Langmuir binding model using software, and then the kinetic constants for antigen-antibody binding were calculated.

[4] = target: T1, human CLDN18.2 expressed on cell …; assay: cell-based or functional assay
[5] = target: T1, human CLDN18.2 expressed on cell …; assay: cell-based or functional assay; remark: listed apart in the source
[6] = target: T2, antigen human CLDN18.2, His-tagged; assay: SPR (BIAcore), antibody captured by anti-human Fc, antigen as analyte
Experimental: Referring to the instructions provided in the Human Antibody Capture Kit (cat No. BR-1008-39, Lot 10261753) from GE Healthcare, the analytical channel and the control sample channel on a CM5 sensor chip were first saturated and coupled with the maximum amount of anti-human Fc antibody, then buffers containing anti-human CLDN18.2 chimeric antibodies, humanized antibodies or a control antibody IMAB362 at 7.5 μg/ml were allowed to flow through the analytical channel and uniformly distribute. Finally, antigen samples diluted in gradient (the initial concentration was 20 nM and diluted by 1:3 to get 8 concentrations, and the concentration 0.741 nM was set to be repeated) were allowed to flow through both the analytical channel and the sample channel, and the photoreactions upon the binding of antibody to antigen were measured. Subsequently, the association constant Kon and dissociation constant Koff and affinity constant KD of each antibody were finally obtained by instrument software fitting analysis.

- binding result [1]: binds
B1: 46J05-xiIgG (antibody, V domains shown)
VH: DVQLVESGGGLVQPGGSRKLSCAASGFTFSRFGMHWVRQAPKKGLEWVAYISSGSNTIYYADTVKGRFTISRDNPKNTLFLQTTSLRSEDTAIYYCGRLGFYGNSFDHWGQGTLVTVSA
VL: NILMTQSPSSLTVTAGEKVTMNCKSSQSLLNGGNQRNYLTWYQQKAGQPPKLLIYWASTRESGVPDRFTGGGSGTDFTLTISSVQAEDLALYYCQNSYYYPLTFGAGTKLELKR
notes: murine variable regions on human IgG1 / kappa constant regions; also called 46J05 chimeric antibody

- binding result [2]: binds
B2: murine antibody 46J05 (antibody, V domains shown)
VH: DVQLVESGGGLVQPGGSRKLSCAASGFTFSRFGMHWVRQAPKKGLEWVAYISSGSNTIYYADTVKGRFTISRDNPKNTLFLQTTSLRSEDTAIYYCGRLGFYGNSFDHWGQGTLVTVSA
VL: NILMTQSPSSLTVTAGEKVTMNCKSSQSLLNGGNQRNYLTWYQQKAGQPPKLLIYWASTRESGVPDRFTGGGSGTDFTLTISSVQAEDLALYYCQNSYYYPLTFGAGTKLELK
notes: Mouse hybridoma antibody (supernatant)

- binding result [1]: binds
B4: 50C14-xiIgG (antibody, V domains shown)
VH: EVQLRQSGPELVKPGASVKMSCKASGYTFTTYIINWVKQKPGQGLEWIGYINPYNDGTRYNERVKGKATLTSDKSSSTAYMELSSLTSEDSAVYYCARFHFGNSFTYWGQGTLVTVSA
VL: DIVMTQSPSSLPVTTGEKVTMTCKSSQGLFNNGNQRNYLTWYQQKPGQPPKLLIYWASTRESGVPDRFIGSGSGTDFTLTISSVQAEDLAIYYCQNNYIFPLTFGAGTKLELKR
notes: murine variable regions on human IgG1 / kappa constant regions; also called 50C14 chimeric antibody

- binding result [2]: binds
B5: murine antibody 20L17 (antibody, V domains shown)
VH: DVQLVESGGGLVQPGGSRKLSCAASGFTFSSFGMHWVRQAPEKGLEWVAYISSGSSTIYYPDTVKGRFTVSRDNPKNTLFLQMTSLRSEDTAMYYCVRLGPRGNVMDHWGQGTSVTVSS
VL: DIVMTQSPSSLTVTAGEKVTMSCKSSQSLLNSGNQRNYLTWYQQKPGQPPKLLIYWASTRESGVPDRFTGSGSGTDFTLTISSVQAEDLAVYYCQNVYFYPLTFGTGTKLELR
notes: as for B2

- Kd [3]: 1.29 nM
- Response [3]: 0.174
- koff [3]: 0.00046 s⁻¹
- kon [3]: 356000 M⁻¹ s⁻¹
B7: 11M23-hz11 (antibody, V domains shown)
VH: QVQLVESGGGVVQPGRSLRLSCAASGFSLTNYGVHWVRQAPGKGLEWVAVIWSDGRINYNSALKSRFTISKDNSKNTLYLQMNSLRAEDTAVYYCARHPAFGPHAMDYWGQGTLVTVSS
VL: DIVMTQSPLSLPVTPGEPASISCRSSKSLLNSNGNTYLYWFLQKPGQSPQLLIYRMSNPASGVPDRFSGSGSGTDFTLKISRVEAEDVGVYYCMQYLEYPPTFGAGTKLEIK

- Kd [3]: 2.92 nM
- Response [3]: 0.136
- koff [3]: 0.00195 s⁻¹
- kon [3]: 670000 M⁻¹ s⁻¹
B8: 11M23-hz22 (antibody, V domains shown)
VH: QVQLVESGGGVVQPGRSLRLSCAASGFSLTNYGVHWVRQAPGKGLEWVAVIWSEGRINYQSALKSRFTISKDNSKNTLYLQMNSLRAEDTAVYYCARHPAFGPHAMDYWGQGTLVTVSS
VL: DIVMTQSPLSLPVTPGEPASISCRSSKSLLSSSGNTYLYWFLQKPGQSPQLLIYRMSNPASGVPDRFSGSGSGTDFTLKISRVEAEDVGVYYCMQYLEYPPTFGAGTKLEIK

- binding result [2]: binds
B10: murine antibody 43L6 (antibody, V domains shown)
VH: QVQLKESGPDLVAPSQSLSLTCSVSGFSLTSYGIHWVRQPPGKGLEWLVVIWSDGRTTYNSGLKSRLSISKDNSKSQVLLKMNSLRTDDTAIYYCVRHPAFGPHAMDYWGQGTSVTVSS
VL: DIVMTQAAPSVPVTPGESVSISCRSSKSLLNSNGNTYLYWFLQRPGQSPQLLIYRMSNLASGVPDRFSGSGSGTDFTLRISRVEAGDVGVYYCMQYLEYPVTFGAGTKLELK
notes: as for B2

The next lines start with the binder.

B3: 48G12-xiIgG (antibody, V domains shown)
VH: EVQLRQSGPELVKPGASVKMSCKASGYTFTTYIINWVKQKPGQGLEWIGYINPYNDDTRYNERVKGKATLTSDKSSSTAYMELSSLTSEDSAVYYCARFYFGNSFTYWGQGTLVTVSA
VL: DIVMTQSPSSLPVTVGERVTMTCKSSQGLFNSGNQRNYLTWYQQKPGQPPKLLIYWASTRESGVPDRFTGSGSGTDFTLTISSVQAEDLAIYYCQNNYIYPLTFGAGTKLELKR
notes: murine variable regions on human IgG1 / kappa constant regions; also called 48G12 chimeric antibody
- binding result [1]: binds

B6: 11M23-hz00 (antibody, human IgG1, V domains shown)
VH: QVQLVESGGGVVQPGRSLRLSCAASGFSLTNYGVHWVRQAPGKGLEWVAVIWSDGRINYNSALKSRFTISRDNSKNTLYLQMNSLRAEDTAVYYCARHPAFGPHAMDYWGQGTLVTVSS
VL: DIVMTQSPLSLPVTPGEPASISCRSSKSLLNSNGNTYLYWYLQKPGQSPQLLIYRMSNPASGVPDRFSGSGSGTDFTLKISRVEAEDVGVYYCMQYLEYPPTFGAGTKLEIK
notes: Humanized (direct CDR graft)
- Kd [3]: 1.49 nM
- Response [3]: 0.164
- koff [3]: 0.000324 s⁻¹
- kon [3]: 218000 M⁻¹ s⁻¹

B9: 43L6-xiIgG (antibody, V domains shown)
VH: QVQLKESGPDLVAPSQSLSLTCSVSGFSLTSYGIHWVRQPPGKGLEWLVVIWSDGRTTYNSGLKSRLSISKDNSKSQVLLKMNSLRTDDTAIYYCVRHPAFGPHAMDYWGQGTSVTVSS
VL: DIVMTQAAPSVPVTPGESVSISCRSSKSLLNSNGNTYLYWFLQRPGQSPQLLIYRMSNLASGVPDRFSGSGSGTDFTLRISRVEAGDVGVYYCMQYLEYPVTFGAGTKLELKR
notes: murine variable regions on human IgG1 / kappa constant regions; also called 43L6 chimeric antibody
- binding result [1]: binds

B11: 11M23-xiIgG (antibody, V domains shown)
VH: QVQLKESGPDLVAPSQSLSITCTVSGFSLTNYGVHWVRQPPGKGLEWLVVIWSDGRINYNSALKSRLSITKDNSKRQVFLKMNSLQIDDTAIYYCVRHPAFGPHAMDYWGQGISVTVSS
VL: DIVMTQDAPSIPVTPGESVSISCRSSKSLLNSNGNTYLYWFLQRPGQSPHLLLYRMSNPASGAPDRFSGSGSGTEFTLRISRVEAEDVGVYYCMQYLEYPPTFGAGTRLELKR
notes: Murine variable regions on human IgG1 / kappa constant regions; also called 11M23 chimeric antibody
- Kd [3]: 0.293 nM
- Response [3]: 0.184
- koff [3]: 0.000107 s⁻¹
- kon [3]: 366000 M⁻¹ s⁻¹

B12: IMAB362 (antibody, human IgG1, kappa, V domains shown)
VH: QVQLQQPGAELVRPGASVKLSCKASGYTFTSYWINWVKQRPGQGLEWIGNIYPSDSYTNYNQKFKDKATLTVDKSSSTAYMQLSSPTSEDSAVYYCTRSWRGNSFDYWGQGTTLTVSS
VL: DIVMTQSPSSLTVTAGEKVTMSCKSSQSLLNSGNQKNYLTWYQQKPGQPPKLLIYWASTRESGVPDRFTGSGSGTDFTLTISSVQAEDLAVYYCQNDYSYPFTFGSGTKLEIKR
notes: Chimeric anti-CLDN18.2 antibody of Ganymed, used as control; also called control antibody IMAB362
- CDC EC50, BxPC3 cells stably expressing human CLDN18.2 (CCK-8) [4]: 52.2 nM
- CDC EC50, CHOK1 cells stably expressing human CLDN18.2 (CCK-8) [4]: 30.4 nM
- CDC EC50, NCI-N87 cells stably expressing human CLDN18.2 (CCK-8) [4]: 474 nM
- ADCC reporter EC50 (Jurkat NFAT-luciferase effector cells), BxPC3 target cells [5]: 0.106 nM
- ADCC reporter EC50 (Jurkat NFAT-luciferase effector cells), CHOK1 target cells [5]: 0.593 nM
- ADCC reporter EC50 (Jurkat NFAT-luciferase effector cells), NCI-N87 target cells [5]: 0.0909 nM
- Kd [6]: 136 nM
- koff [6]: 0.201 s⁻¹
- kon [6]: 1.48e+06 M⁻¹ s⁻¹

B13: 43B5-xiIgG (antibody, V domains shown)
VH: DVQLQESGPDLVKPSQSLSLTCTVSGYSISGAYNWHWIRQFPGNKLEWLAYMQYSGSSNYNPSFKSRISISRDTSKNQFFLQLKSVTTEDTATYYCARMYNGNSFLYWGQGTLVTVSA
VL: DIVMTQSPSSLTVTAGEKVTMNCKSSQSLFNSGNQKNYLTWYQQKPGQPPRLLIYWASTRESGVPDRFTGSGSGTDFTLTISSVQAEDLSLYYCQNSYSYPLTFGAGTKLELKR
notes: murine variable regions on human IgG1 / kappa constant regions; also called 43B5 chimeric antibody
- EC50 (read off the curve) [1]: ~1 nM

B14: 20L17-xiIgG (antibody, V domains shown)
VH: DVQLVESGGGLVQPGGSRKLSCAASGFTFSSFGMHWVRQAPEKGLEWVAYISSGSSTIYYPDTVKGRFTVSRDNPKNTLFLQMTSLRSEDTAMYYCVRLGPRGNVMDHWGQGTSVTVSS
VL: DIVMTQSPSSLTVTAGEKVTMSCKSSQSLLNSGNQRNYLTWYQQKPGQPPKLLIYWASTRESGVPDRFTGSGSGTDFTLTISSVQAEDLAVYYCQNVYFYPLTFGTGTKLELRR
notes: murine variable regions on human IgG1 / kappa constant regions; also called 20L17 chimeric antibody
- binding result [1]: binds
